According to the DeepSol protein solubility set:

experiment: soluble on expression in E. coli; label from the status in PepcDB or PDB records

| Sequence | soluble on expression in E. coli |
| --- | --- |
| MARKGTTPWHESREMHTQDDADSSLKEQEKTTNKKEQTTAPPEKKLPTIPGKLPKRSVEPPEESRDQKPAGNKPNLKKSPSNPRIPPGGSHPRKKPKVPNRDPSGKHVNSDKKKPSAEAHDKESLSSPPQTDAGKETTKESASTYGASWKSSKPTLKADLKAMEDYITKMPNFHGYICREDAAQILKHPGDWLVRLSVPPSNDQDKKNKAQNLAKSVERTKGHKSTMQKVFVISVLCKGKALSPAKSNNRNLVIKTNNGKFSIDSVHWLVKLKDLFSHYQGTSAVHKNGEFQLLNPISLSKWEFQHEDTELLAKKLGEGAFGEVRVGRLTTKDPKKKLVEVAVKMLKSSADSVTRDQVEELLHETRIMRKLDHPNVLRSYGVAVLREPLYLMIELCSNGALREYLKENHKTITLADKINFVLGSARGVAYLHSQRILHRDLAVRNILLTEDKTPKVSDFGLAELTDRYEMKEHCKIPVRYLAPETLELFIFTPKTDVFSFGCVIWEIYENGQQPHDGKNAQTIRAQVKKREFLKLSSSAPEALRRLVAEKVFVADPENRCSMTSIVQCVETAEKTVK | soluble |
| MTLPLNPAMAATFPPPVMEARRWIQGLSFPADRPLLNLSQAAPVEPPPAELRAALAEAALHDPQAHLYGPVLGLPALRAEIAAQWSAAYGGRIEPAQVAITQGCNQAFCAIMATLAGAGDEVILPTPWYFNHKMWLDMQGVMAVPLPTGPCLLPDAEEAAALVGPRTRAIVLVSPNNPGGVEYPAATLEAFRDLARARGLALIVDETYRDFDSRTGAPHALFADPDWDGVLVHLYSFSKAYRLTGHRVGAVVASAARLAQIEKFLDTVAICPSQLGQIGALWGIRNLAQWVAGERAEILARRTAMVGGFSALDGWTLLGCGAYFAYVEHPFDTPSDRLAPRLVQEAGVLLLPGTMFQPEGSEAGARQFRMAFANVDQAGIAELFSRLAQVTD | not soluble |
| MATRFMTDPHAMRDMAGRFEVHAQTVEDEARRMWASAQNISGAGWSGMAEATSLDTMAQMNQAFRNIVNMLHGVRDGLVRDANNYEQQEQASQQILSS | not soluble |
| SLAAVQVVGSWPSVQPREAPREAIPERGNGFRLLSARLCALRPDDSSSARTEIHLLFDQLISENYSEGSGVAPEDVSALLVQACRLVPLNQNHLVSKVSQLIHHLLNRLQVIVDEQHLDFLLAYTISAIHQCSSWTHREILQALAALVYCNGSKCQKYLPELLGNTGLLMKLSDLAQSDPEVRRAAVHCMANLCLSVPGQPYLEEPYQNVCFQAFLTILQSPKSSDMDDITFCMLLQNALKGIQSLLNGGRMKLTQTDELGALLAVLKKFMFHGLPGLNIEMPTVLYPTPLPQYDGRTPIK | soluble |
| MCMDEIKKWKNVKAKKITETLNKRHFKASYVETLEEAKEKLISMIEEGSSVAIGGSTTLSQMGMVDVLRNGNYKFFDRYQNLPFDPDIVEIHRKSLTADYLITGTNAITENGELVNTDCTGNRVAPMIFGPKNVIIVAGINKIVENIDAALKRIREIAPMNSKRIKHETPCVETGFCVDCDCKKRICNFTTIIHNGIKFEGRIKIIIIADELGYLEHHHHHH | not soluble |
| MTADIRFDEKGLVPAIVQDAQSKEVLTLAYMNKESLEKTLETGETWFYSRSRQELWHKGATSGNVQRVVDIRYDCDADALLVLVEPAGPACHTGSYSCFSRSLDGAARTPAADRFAILNELEQIIAKRDAERPEGSYTTYLFEKGVDKILKKVGEEAAEVIIAAKNQNHEELKWEAADLLYHLLVLLREQKLPLDAVLATLAERHAQKVGAGDKKE | not soluble |
| MFGKQLFEEVGSKISETIANSPAKDVEKNIKAMLGGAFNRMDLVTREEFDIQQQVLIKTRTKLAALEARLEKLEAAQNPERAALEAAEAAAE | not soluble |
| MGHHHHHHSHMAERCFQQAIAFQASCAAVEACFQDLELMHRWLNPLLRCRPEGDWNLDRGSRNRFQIQIPLIYPSLECVVCDRAEGLIVWQFEGFFQGTDTWRWWQEGEHTQLDNCFRFRIAKPWVAWGFDRVAAGVTQRDMQAQLQRLKAIAETLPVASTVTDNLP | not soluble |
| MGSDKIHHHHHHMAQLVAIDNKNHLNLKVDAAKAELHGAGLHLVPAVMAEFTSMAVQYPLVITKNADTGQFVVAAMLGFESGENLFWRGGQWQGLYLPLQIRRQPFFVGNPEQNSEQKVAGDYVVCFDSESPAIVSNDGQALFSEDGVDTEYFQQAKYCLAQLLEGELANKKLLEQLQSMELLQVMQMEVTFANQQSTTLNGLYTIDTEKLAALSAEKIASLHKAGLLQAIYTLITSLGQIHHLIDLKNKQLGC | not soluble |
| MILMAIGLLMGSYYAVEWYKGKSSAQELTNEEIKSFKNIQHNQLPYETLVTSQVPSSQTEHKEGEKVAMLNIPKLKKKFSIYWGADDATLKKGVGMFVSDVTTTPSGGGHTVLSGHRDTVFTDLGQLKEKDTLVLEYDNKTYTYEIQKIWITHADDRTVIIKKEEPILTLTTCYPFDYIGDAPDRYIIEAKLTGSYSK | not soluble |
| MEVSTSYCTPAVNFKYGSFQDSDVSMREDDLFRMGSYNSQGYYADGTHLDGSIGEEDETSSGSNDQHMDFEEDDFDMESSMTEDLVDEDEEEEDEEDNDEWTNQKRTDNQNSVAYYAAMEMLRIRFPFQSIAIRISDFCCLQEKDLLNDTMIDFYLNHIVEHVLPDSNGSNVTVLPSIFWHNLSLRQHAFDSEDEKMMSDEQKMDLKFGDLHDFVADFDLQDFDYIVVPVNEWEHWSLAVICHPFTAQARTVIFDSQLTADLNNLQNMATLIESFMKYSYEKRTGNAMPFPLPCILPQRMPQQTNNFDCGIFIAEFARRFLLSPPKDPATISLCFHPLATLL | not soluble |
| MYCKPHRPGNTPQVPDNKGKCTRLVDYLSKESQVERPYYDNFFSQQKDYVIPLTVKNHIDNNHRTLKSNDDKFYMLSINPSGDEQRHLIERVTGRKVGEFSELTPGEQESVLAQMKKFTRECMDEYARNFYREKIKSGDDLVWYGRVETERHYKNDDPEVKAGRVKAGDKKPGLQLHVHVIVSRMDRTQTVSLSPLSKSRGNRQILEGREVVVGFDRSQWSSRCASRFNQSYDYFPNYYSRDESLRKYSENWQAKNELKNEAVSKLKQEVLKGELKEERRLYANTFRIYRFVVNPRKAIIQELKRLGTDLLSGRDL | not soluble |
| SAAGSEATTPVIVAAGAGGEEGEHVKPFKPEKAKEIIMSLQQPAIFCNMVFDWPARHWNAKYLSQVLHGKQIRFRMGMKSMSTVPQFETTCNYVEATLEEFLTWNCDQSSISGPFRDYDHSKFWAYADYKYFVSLFEDKTDLFQDVKWSDFGFPGRNGQESTLWIGSLGAHTPCHLDSYGCNLVFQVQGRLECNGMIIAPGPQAILLPQPLKYLGLQETMASLSS | soluble |
| EVPDYLCCNITLEIFRDPVISPSGVTYERAAILEHLKKVGKFDPITREKIDPANLVPNLAIKEAVAAYLEKHVWAYKMGC | soluble |
| MGSDKIHHHHHHMQVNRLFQIIYILLEKNSVTARELAEKIEVSKRTIYRDIETLSTAGIPVYMTKGKGGGISILPNFILNKAILTEEEKSEIISSIRAVNAVNFSDSEAEKVLIKLNSILGENDTDWIEVDFSNWGNAEKEKETFNNLKTAILSKKVVKFDYSSAKGENISRKVCPLKLCFKGQSWYMYGYCGIRNDYRFFKLRRIKDLYVSEESFNIKAPKKIMKEDNVFYDEFITLKMKISSKMAYRIYDEFEDFKKLDDGSFIVTAEYPKGEWLFSYISSFGEECEVLAPQEIREEIKNKIEKMLLNYS | not soluble |
| MLQDHKITFLGAGSMAESIIAGLLSKKLLLPSQVIATNLCDEAKLTKLEDRYGICTTQNRQEAVRQGTIIFLAMKPKNIEEAIEEIRGEITEKQLFISVLAGTTTSYIETLLAHEVPVVRTMPNTSAKVGASATGLCGGRYANASHVKLATLIFTAIGTVTEVTEDKLDAVTGLAGSGPAYFYYMVEAMERAAVQSGLTESEAKAFISQTLIGTGKRLEQTSKTAEELYKEVMSPGGTTEAGLRVLEQQQMQQAIEEAITAAINRSRELGSTPSLEIKKLEHHHHHH | soluble |
| MITVLRINHRPYRDKRITTHVALTARAFGASAILVDERDETLENTIRGVISNFGGSFSIKTGCNWIQEFKHFQGIRVHLTMYGRRINDVIDEIRNSGKDVMVLVGSEKVPIEAYEIADYNVSVTNQPISEVSALAIFLDRYFQGKEFEFEFRGRINVQPAERGKIVKIIPDEIECLDLLKKYGASEQLIEHVKAVEGLALKIAERCNADKRVIVAGSLLHDIGRTRTNGIDHAVAGAEILRSENIHDSVVSAVERHIGAGITREEAARLGLPEKDYVPETLEEMIVAQADNLFAGNKRLRLEEVLNIYRKRGLDSAAERIKELHRRISAIAGIDIDEIRLEHHHHHH | soluble |
| MVTRITGLASGMDIDDIVSKLMQTERAPLDKLTQKKQTLEWQRDSYREVNSKIKELQDYMSKNTLTYPSTYQSKTVTSSNESVLTATGSVSAPNSSSTVEVASLATAATYKANNYTGYTQGDYNLAFNVVAPGETTAKTVNISVTSADTIDNVISKLNSSDLGVSAFKDKIWNGTEYVETIAFSSKATGAGGSIQAADSATADFMSGQLGFSLDADNKLTAYKEGTNAKVTINGFEMEKLTNNFTVNGVTYSIKNTTAATGPVTTSVSTDVDGIYNQIKEFVDKYNELVDSLNEKLKEEKYRDYTPLTSEQKEAMSDKEVELWEEKAKSGLLRNDSSISTGTNQMRTDFYTQVNADGKTYQLTEFGITTSSAYQLRGHLEINEEKLKAKIAEDPQGVANLFTSGTNDSNYSDKGIMKRITNTLRSTVKSIEAKAGNSTMGASSYSIGKNLNSISTEITDMQDRLNTIENRYYSKFSAMDSAIQKMNEQASYLSQLLVQ | not soluble |
| MSLAIWAAGDTAGVATVVRTLRSAPRPPGAAMVVAPDGSVSGSVSGGCVEGAVYELAAEVAQTGIPRLEHYGVSDDTAFAVGLTCGGIIDVFVEPVSRATFPELGELADDIGAQRPVAIATVIAHPDERRVGRRLVIRPDTKSPVTGSLGSARADAAVIDDARGLLAVGRSEILEYGPDGQRRGEGMEVFVSSHAPRPRMLVFGAIDFAAALARQGSFLGYRVTVCDARAVFATPARFPTADDVVVAWPHRYLAAQAEAGGIDERTVICVLTHDPKFDVPVLEVALRLGVGYVGAMGSRKTHDDRMDRLRAAGLTDAELSRLSSPIGLDLGARTPEETAVSIAADIIARRWGGGGRPLADIAGRIHHDAQVAGEFKDYLTRHEGHHHHHH | soluble |
| MKNTQLLTSLRYVLLGALTVTTSVVQAESIAITNATVYTVAKKGVLFQATVMVDEGKITAVYGKDEVPESLSADTIIDAKERILTPGFIATHNLLGLVEVGAVSDTRDSSDKDADITFDASLAFNPKSTLIAYARKGGITSSLVMPYGGEDVITGQSFVVNLSGDFDSVIMPQNAVIVSLGASGKGSRATKLQTLSNELEDAQKALAKAEKVKASSKKEKEEKEAETPSRSELVLNELLSGDKPLIAYADRATDILALLKLKQKFNLNLILAGASDAVLVSDEIAKANVVVMMSAIDNLPSSFDSLHNSLTNVAKLTDAGVKVIISNSGESYNINQLRFDAGVAVANGVAATTALAAVTANVADSFNLNSGRIAVGKNADLVLWSSDPFEISTKVDAMWINGQAMSLKSRQDALRQRYIVETDMPRAYTK | not soluble |
| TGCSVTATRAEEWSDGFNVTYSVSGSSAWTVNLALNGSQTIQASWNANVTGSGSTRTVTPNGSGNTFGVTVMKNGSSTTPAATCAGS | soluble |
| MGSDKIHHHHHHMNLLSLYHFFAGKASDKQKEAIKRWAESSPDNYETLCREKKIFDAGILLVDKKELFQKENAPLLYKLINYTVKIAAVVLLVVVSVTIYKYQELVKKSEVLQTILVPAGQRINIILPDSTFVCLNSNTKFSYPSVFATNNRKVKLDGEAYFEVSANKNKPFYVHTSKGEIKVLGTHFNLEAYSNADVFKTSLFEGKVRVRVKGNNIYLKPDQMVCYHKNGKIHLETIHDYDQFRWREGLICIKSAKLKDIMKTFTKYFGDSIVIQNKEVEHYKYTGKFRQSRGVINALRLLQKDAPFTIEQDEDKQIIYIK | not soluble |
